Source: patent publication US10568344B2, “Methods of improving animal performance” (Novozymes A/S, priority 2015, dated 2020)
Marks after values point to notes of the source that are not given here.

Tests used:
Bacteroidales = assay: Microbiota analysis of broiler trial 4 (16S rRNA), Bacteroidales; assay type: in vivo, chicken; design: key to Observed shift compared to the control group, Significance: Significant change (+++), padj < 0.05; Numerical change (+); conditions: 50 ppm
[1] = In vivo broiler trial 1, growth performance; design: species or system male broiler chickens (ROSS PM3)
[2] = In vivo piglet trial, growth performance; design: species or system weaned piglets
Protocol: The trial was performed from Oct. 23 to Dec. 4, 2014 at the Research Center for Animal Nutrition (DSM Nutritional Products France, F-68305 Village-Neuf) according to the official French guidelines for experiments with live animals. One hundred and four castrated male crossbred (Large-White (female)×Redon (male)) weaned piglets having 28 days of age supplied by the commercial farm “[…] du Rhin” located in Balgau (France), were used in a 42-day experiment. The initial bodyweight of the piglets was 7.88±0.675 kg. They were sorted by body weight into 32 groups of 3 or 4 piglets and randomly allotted to each dietary treatment. Each group of animals was placed in one flat-deck cages and allocated to one of the different treatments. Each treatment was replicated with 8 cages using a total of 26 animals (6 cages of 3 animals/treatment and 2 cages of 4 animals/treatment) per treatment. […] Animals were housed in an environmentally controlled room. Room temperature was initially 27° C. and was lowered weekly by about 2° C. until 21-22° C. and relative humidity percentage was 50%. The experimental diets (Pre-Starter and Starter) were fed ad libitum in two feeding phases from day 0 to 14 (phase 1, Pre-starter) and day 14 to 42 (phase 2, Starter). The ingredient composition and the calculated nutrient levels of the experimental diets for phases 1 and 2 are presented in table 11. Both diets were formulated to meet the animals' requirements according NRC (2012) and were fed in pelleted form. Pelleting conditions were at 70° C. for 30 seconds. […] No additional enzymes (e.g. phytase) were added to the feed. […] Appropriate amount of the liquid preparations of lysozyme was diluted in water and sprayed onto the respective pelleted feed to get the final concentrations in the feed corresponding to the different treatments. For procedural balance of all treatments the same volume of water were also sprayed onto the pellets of the control diets. Body weight of the individual animals and feed consumption per pen were recorded on days 14 and 42 of the study. […] The experimental unit was the piglet, except for ADFI and FCR which were measured by cage, and in both cases, treatment was used as class variable. One-factorial ANOVA and Student-Newman-Keuls test was used to assess differences among means in treatment groups.

[3] = tested on: Micrococcus lysodeikticus ATTC No. 4698; assay: Lysozyme activity turbidity assay (optical density drop); conditions: pH 4
chicken gut microbiota = assay: Microbiota analysis of broiler trial 4 (16S rRNA), overall composition; assay type: in vivo; conditions: 50 ppm; ceca content
[4] = Grower (d 22-36), 25 mg/kg feed
[5] = Grower (d 22-36), 50 mg/kg feed
[6] = Grower (d 22-36), 100 mg/kg feed
[7] = Grower (d 22-36), 200 mg/kg feed
[8] = Starter (d 1-22), 25 mg/kg feed
[9] = Starter (d 1-22), 50 mg/kg feed
[10] = Starter (d 1-22), 100 mg/kg feed
[11] = Starter (d 1-22), 200 mg/kg feed
[12] = Whole period (d 1-36), 25 mg/kg feed
[13] = Whole period (d 1-36), 50 mg/kg feed
[14] = Whole period (d 1-36), 100 mg/kg feed
[15] = Whole period (d 1-36), 200 mg/kg feed

B1: SEQ ID NO: 1: mature amino acid sequence of a wild type GH25 lysozyme from Acremonium alcalophilum with N-terminal SPIRR (protein)
chain: SPIRRRIPGFDISGWQPTTDFARAYANGDRFVYIKATEGTTFKSSAFSRQYTGATQNGFIRGAYHFAQPAASSGAAQARYFASNGGGWSKDGITLPGALDIEYNPNGATCYGLSQSAMVNWIEDFVTTYHGITSRWPVIYTTTDWWTQCTGNSNRFANRCPLWIARYASSVGTLPNGWGFYTFWQYNDKYPQGGDSNWFNGDASRLRALANGD
modifications: Wild type sequence with N-terminal SPIRR
In the case of B1, the “Observed shift compared to the control group, Significance” value (Bacteroidales; Order level (Bacteroidales)) is reported as “+”, the “Bacteroidales Change vs control” value (Bacteroidales; order level) is reported as −15.8551 and the “Bacteroidales Ratio vs control” value (Bacteroidales; order level) is reported as 0.7538. The “Bacteroidales abundance, Lysozyme treatment” value (Bacteroidales; order level, ceca content) was 48.5437, the “Improvement of FCR compared to the control diet” value ([1]; 25 mg/kg) was 3.3% and the “Improvement of FCR compared to the control diet” value ([1]; 50 mg/kg) was 2.9%. The “Improvement of FCR compared to the control diet” value ([1]; 100 mg/kg) was 3.2%, the FCR [1, 4] was 1.676^c and the “FCR, Relative to C (%)” value [1, 4] was 96.7%. For the same molecule, the Feed intake [1, 4] was 3004^ab g/b, the “Feed intake, Relative to C (%)” value [1, 4] was 98.5% and the Weight gain [1, 4] was 1792 g/b. The “Weight gain, Relative to C (%)” value [1, 4] was 101.9%, the FCR [1, 5] was 1.683^bc and the “FCR, Relative to C (%)” value [1, 5] was 97.1%. The Feed intake [1, 5] was 2939^ab g/b, the “Feed intake, Relative to C (%)” value [1, 5] was 96.4% and the Weight gain [1, 5] was 1747 g/b. The “Weight gain, Relative to C (%)” value [1, 5] was 99.3%, the FCR [1, 6] was 1.662^c and the “FCR, Relative to C (%)” value [1, 6] was 95.8%. For the same molecule, the Feed intake [1, 6] was 2870^b g/b, the “Feed intake, Relative to C (%)” value [1, 6] was 94.1% and the Weight gain [1, 6] was 1729 g/b. The “Weight gain, Relative to C (%)” value [1, 6] was 98.2%, the FCR [1, 7] was 1.742^a and the “FCR, Relative to C (%)” value [1, 7] was 100.5%. The Feed intake [1, 7] was 2934^ab g/b, the “Feed intake, Relative to C (%)” value [1, 7] was 96.2% and the Weight gain [1, 7] was 1685 g/b. For the same molecule, the “Weight gain, Relative to C (%)” value [1, 7] was 95.7%, the FCR [1, 8] was 1.781^ab and the “FCR, Relative to C (%)” value [1, 8] was 98%. For the same molecule, the Feed intake [1, 8] was 1985 g/b, the “Feed intake, Relative to C (%)” value [1, 8] was 99.5% and the Weight gain [1, 8] was 1115 g/b. For the same molecule, the “Weight gain, Relative to C (%)” value [1, 8] was 101.3%, the FCR [1, 9] was 1.793^ab and the “FCR, Relative to C (%)” value [1, 9] was 98.7%. The Feed intake [1, 9] was 1977 g/b, the “Feed intake, Relative to C (%)” value [1, 9] was 99.1% and the Weight gain [1, 9] was 1102 g/b. For the same molecule, the “Weight gain, Relative to C (%)” value [1, 9] was 100.1%, the FCR [1, 10] was 1.723^bc and the “FCR, Relative to C (%)” value [1, 10] was 94.9%. For the same molecule, the Feed intake [1, 10] was 1941 g/b, the “Feed intake, Relative to C (%)” value [1, 10] was 97.3% and the Weight gain [1, 10] was 1127 g/b. For the same molecule, the “Weight gain, Relative to C (%)” value [1, 10] was 102.4%, the FCR [1, 11] was 1.696^c and the “FCR, Relative to C (%)” value [1, 11] was 93.4%. For the same molecule, the Feed intake [1, 11] was 1946 g/b, the “Feed intake, Relative to C (%)” value [1, 11] was 97.6% and the Weight gain [1, 11] was 1148 g/b. The “Weight gain, Relative to C (%)” value [1, 11] was 104.2%, the FCR [1, 12] was 1.716^bc and the “FCR, Relative to C (%)” value [1, 12] was 97.3%. For the same molecule, the Feed intake [1, 12] was 4991^ab g/b, the “Feed intake, Relative to C (%)” value [1, 12] was 98.9% and the Weight gain [1, 12] was 2908 g/b. The “Weight gain, Relative to C (%)” value [1, 12] was 101.6%, the FCR [1, 13] was 1.727^b and the “FCR, Relative to C (%)” value [1, 13] was 97.9%. The Feed intake [1, 13] was 4920^ab g/b, the “Feed intake, Relative to C (%)” value [1, 13] was 97.5% and the Weight gain [1, 13] was 2849 g/b. The “Weight gain, Relative to C (%)” value [1, 13] was 99.6%, the FCR [1, 14] was 1.686^c and the “FCR, Relative to C (%)” value [1, 14] was 95.6%. For the same molecule, the Feed intake [1, 14] was 4815^b g/b, the “Feed intake, Relative to C (%)” value [1, 14] was 95.4% and the Weight gain [1, 14] was 2856 g/b. For the same molecule, the “Weight gain, Relative to C (%)” value [1, 14] was 99.8%, the FCR [1, 15] was 1.722^b and the “FCR, Relative to C (%)” value [1, 15] was 97.6%. The Feed intake [1, 15] was 4877^ab g/b, the “Feed intake, Relative to C (%)” value [1, 15] was 96.6% and the Weight gain [1, 15] was 2832 g/b. For the same molecule, the “Weight gain, Relative to C (%)” value [1, 15] was 99%, the “Improvement of weight gain compared to the control diet” value ([1]; day 1 to day 36, 25 mg/kg) was 1.6% and the “Improvement of FCR compared to the control diet” value ([1]; starter period, 25 mg/kg) was 2.0%. For the same molecule, the “Improvement of weight gain compared to the control diet” value ([1]; starter period, 25 mg/kg) was 1.3%, the “Improvement of FCR compared to the control diet” value ([1]; starter period, 100 mg/kg) was 5.1% and the “Improvement of weight gain compared to the control diet” value ([1]; starter period, 100 mg/kg) was 2.4%. The “Improvement of FCR compared to the control diet” value ([1]; starter period, 200 mg/kg) was 6.6%, the “Improvement of weight gain compared to the control diet” value ([1]; starter period, 200 mg/kg) was 4.2% and the “ADFI, % relative NC” value ([2]; day 0-14, 50 ppm) was 90.0%. For the same molecule, the “ADFI, Mean” value ([2]; day 0-14, 50 ppm) was 324 g/day, the “ADWG, % relative NC” value ([2]; day 0-14, 50 ppm) was 96.2% and the “ADWG, Mean” value ([2]; day 0-14, 50 ppm) was 279 g/day. For the same molecule, the “FCR, % relative NC” value ([2]; day 0-14, 50 ppm) was 94.4%, the “FCR, Mean” value ([2]; day 0-14, 50 ppm) was 1.170^a and the “ADFI, % relative NC” value ([2]; day 0-42, 50 ppm) was 93.1%. The “ADFI, Mean” value ([2]; day 0-42, 50 ppm) was 683^a g/d, the “ADWG, % relative NC” value ([2]; day 0-42, 50 ppm) was 102.4% and the “ADWG, Mean” value ([2]; day 0-42, 50 ppm) was 511 g/day. For the same molecule, the “EPEF, % relative NC” value ([2]; day 0-42, 50 ppm) was 113.0%, the “EPEF, Mean” value ([2]; day 0-42, 50 ppm) was 383 and the “FCR, % relative NC” value ([2]; day 0-42, 50 ppm) was 90.4%. The “FCR, Mean” value ([2]; day 0-42, 50 ppm) was 1.341^a, the “ADFI, % relative NC” value ([2]; day 14-42, 50 ppm) was 92.7% and the “ADFI, Mean” value ([2]; day 14-42, 50 ppm) was 862^a g/d. For the same molecule, the “ADWG, % relative NC” value ([2]; day 14-42, 50 ppm) was 104.0%, the “ADWG, Mean” value ([2]; day 14-42, 50 ppm) was 627 g/day and the “FCR, % relative NC” value ([2]; day 14-42, 50 ppm) was 89.3%. For the same molecule, the “FCR, Mean” value ([2]; day 14-42, 50 ppm) was 1.379^a, the “Improvement on FCR compared to the negative control” value ([2]; overall period (day 0 to day 42), 50 mg/kg) was 9.6% and the “Improvement to FCR compared to NC” value ([2]; starter period, day 15 to day 42, 50 mg/kg) was 11.3%. The “Improvement of ADWG compared to the negative control diet” value ([2]; starter period, 50 mg/kg) was 4.0%, the “EPEF improvement compared to the negative control” value ([2]; whole period, 50 mg/kg) was 13.0% and the “Improvement of ADWG compared to the negative control diet” value ([2]; whole period, 50 mg/kg) was 2.4%. The “Lysozyme activity as measured by Optical Density Drop” value [3] was “+ (pH 4)” and the “Observed shift in the composition of the microbiota compared to the control group, Significance” value (chicken gut microbiota) was “+++ (Significant change (+++), p-value < 0.05)”.
